Results reported in US20180244756A1 (US Dept. of Health and Human Services, published 2018).

B7: MERS-CoV S protein receptor binding domain (RBD), England1 strain, soluble (other)
chain: EAKPSGSVVEQAEGVECDFSPLLSGTPPQVYNFKRLVFTNCNYNLTKLLSLFSVNDFTCSQISPAAIASNCYSSLILDYFSYPLSMKSDLSVSSAGPISQFNYKQSFSNPTCLILATVPHNLTTITKPLKYSYINKCSRFLSDDRTEVPQLVNANQYSPCVSIVPSTVWEDGDYYRKQLSPLEGGGWLVASGSTVAMTEQLQMGFGITVQYGTDTNSVCPKLEFANDTKIASQLGNCVEY

Tests used:
[1] = target: B7; experiment: ELISA specificity (FIG. 22), told only by this label
[2] = target: T1, MERS-CoV S1 protein, England1 strain, soluble (MERS-CoV, England1 strain, UniProt K9N5Q8 19-752)
T1 sequence: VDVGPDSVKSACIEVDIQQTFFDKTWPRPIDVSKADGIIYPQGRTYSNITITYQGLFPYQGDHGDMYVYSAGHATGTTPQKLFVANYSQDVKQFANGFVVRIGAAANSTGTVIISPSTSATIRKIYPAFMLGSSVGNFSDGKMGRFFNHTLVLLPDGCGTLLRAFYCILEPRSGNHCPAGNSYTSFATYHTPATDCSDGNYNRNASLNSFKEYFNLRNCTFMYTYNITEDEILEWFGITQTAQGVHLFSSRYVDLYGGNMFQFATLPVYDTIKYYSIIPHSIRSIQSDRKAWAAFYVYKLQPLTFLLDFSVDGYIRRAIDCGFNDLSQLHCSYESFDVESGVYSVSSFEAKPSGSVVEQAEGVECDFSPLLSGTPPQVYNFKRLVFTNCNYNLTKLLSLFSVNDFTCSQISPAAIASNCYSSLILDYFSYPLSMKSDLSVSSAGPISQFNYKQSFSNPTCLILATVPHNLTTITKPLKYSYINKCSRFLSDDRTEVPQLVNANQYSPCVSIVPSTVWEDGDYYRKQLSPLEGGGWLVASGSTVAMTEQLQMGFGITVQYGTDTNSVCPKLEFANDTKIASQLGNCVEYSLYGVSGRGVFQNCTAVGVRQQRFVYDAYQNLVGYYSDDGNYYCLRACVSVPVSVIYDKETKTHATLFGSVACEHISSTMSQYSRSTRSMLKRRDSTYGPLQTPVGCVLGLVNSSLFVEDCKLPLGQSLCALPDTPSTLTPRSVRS

[3] = target: T2, MERS-CoV Spike (S) glycoprotein, England1 strain, full length (MERS-CoV, England1 strain, UniProt K9N5Q8 19-1353); experiment: cell-based or functional assay
T2 sequence: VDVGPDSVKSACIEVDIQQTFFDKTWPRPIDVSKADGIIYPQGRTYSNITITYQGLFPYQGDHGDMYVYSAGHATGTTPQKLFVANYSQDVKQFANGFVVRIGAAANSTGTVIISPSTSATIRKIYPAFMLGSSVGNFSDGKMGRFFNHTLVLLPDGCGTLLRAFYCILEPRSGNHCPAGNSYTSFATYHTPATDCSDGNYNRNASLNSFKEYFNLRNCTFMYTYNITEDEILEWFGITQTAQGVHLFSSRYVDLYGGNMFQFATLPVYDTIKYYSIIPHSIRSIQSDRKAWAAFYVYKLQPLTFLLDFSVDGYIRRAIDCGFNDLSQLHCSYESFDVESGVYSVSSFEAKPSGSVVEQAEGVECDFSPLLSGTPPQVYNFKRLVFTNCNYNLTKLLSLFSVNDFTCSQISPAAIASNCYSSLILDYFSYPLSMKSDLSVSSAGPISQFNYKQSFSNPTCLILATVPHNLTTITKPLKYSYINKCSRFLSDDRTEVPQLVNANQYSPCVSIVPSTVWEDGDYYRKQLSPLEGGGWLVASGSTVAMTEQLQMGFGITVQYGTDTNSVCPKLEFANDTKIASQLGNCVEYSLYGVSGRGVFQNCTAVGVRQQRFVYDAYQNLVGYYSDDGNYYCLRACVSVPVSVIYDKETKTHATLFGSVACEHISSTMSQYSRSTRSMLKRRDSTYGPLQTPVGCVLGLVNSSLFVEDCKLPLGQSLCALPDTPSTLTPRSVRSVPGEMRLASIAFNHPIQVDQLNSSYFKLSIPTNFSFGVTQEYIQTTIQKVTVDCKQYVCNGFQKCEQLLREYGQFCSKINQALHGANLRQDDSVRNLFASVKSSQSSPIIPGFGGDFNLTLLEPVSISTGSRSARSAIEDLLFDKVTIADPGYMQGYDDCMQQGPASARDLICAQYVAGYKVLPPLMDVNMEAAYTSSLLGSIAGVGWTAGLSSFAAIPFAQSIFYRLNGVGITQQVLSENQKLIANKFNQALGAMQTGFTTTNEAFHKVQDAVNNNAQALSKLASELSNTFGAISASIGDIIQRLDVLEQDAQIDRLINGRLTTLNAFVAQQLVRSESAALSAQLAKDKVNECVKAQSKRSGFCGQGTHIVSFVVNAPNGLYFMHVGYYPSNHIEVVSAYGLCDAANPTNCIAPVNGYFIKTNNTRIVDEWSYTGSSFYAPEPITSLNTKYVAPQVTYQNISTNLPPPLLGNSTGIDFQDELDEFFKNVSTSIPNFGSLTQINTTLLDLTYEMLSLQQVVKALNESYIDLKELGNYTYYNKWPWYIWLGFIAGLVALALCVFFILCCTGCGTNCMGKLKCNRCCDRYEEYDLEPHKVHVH

[4] = target: T1, MERS-CoV S1 protein, England1 strain, …; experiment: ELISA; x axis 'Protein concentration (µg/ml)'
[5] = target: B7; experiment: ELISA, hybridoma supernatant
[6] = target: T2, MERS-CoV Spike (S) glycoprotein, …; experiment: cell-based or functional assay; remark: listed apart in the source
[7] = target: B7; experiment: ELISA; x axis 'Protein concentration (µg/ml)'
[8] = target: T1, MERS-CoV S1 protein, England1 strain, …; experiment: ELISA, hybridoma supernatant
[9] = target: B7
[10] = target: B7; experiment: ELISA on RBD, mAb titrated 0.0032-10 µg/ml
[11] = target: B7; experiment: ELISA on RBD coated plates
[12] = target: T1, MERS-CoV S1 protein, England1 strain, …; experiment: ELISA on RBD, S1 or S2 coated plates
[13] = target: D12 antibody; experiment: cell-based or functional assay
Sequence of D12 antibody (VH, as listed by the source, chain 1 of 2): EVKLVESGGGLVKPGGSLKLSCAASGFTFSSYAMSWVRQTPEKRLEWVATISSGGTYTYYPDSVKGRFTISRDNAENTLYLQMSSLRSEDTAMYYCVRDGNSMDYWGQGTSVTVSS
Sequence of D12 antibody (VL, as listed by the source, chain 2 of 2): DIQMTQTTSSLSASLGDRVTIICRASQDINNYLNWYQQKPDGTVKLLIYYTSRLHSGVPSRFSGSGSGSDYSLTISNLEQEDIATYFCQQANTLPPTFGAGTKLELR

B1: A10 human antibody (antibody, V domains shown)
VH: QVQLVQSGAEVKKPGSSVKVSCKASGGTFSTYALSWVRQAPGQGLEWMGGIIPIFGTANYAQKFQGRVTITADESTSTAYMELNSLRSEDTAVYYCARGSRSSSSAEYFQHWGQGTLVTVSS
VL: QSALTQPRSVSGSPGQSVTISCTGTSSDVGGYNYVSWYQQHPGKAPKLMIYDVSKRPSGVPDRFSGSKSGNTASLTISGLQAEDEADYYCCSYAGSYTLEVVFGGGTKLTVL
binding result [1]: no binding

B2: G2 antibody (antibody, V domains shown)
VH: QVQLQQSGGELVKPGASVKLSCKTSGFTFSSSYISWLKQKPGQSLEWIAWIYAGTGGTEYNQKFTGKAQVTVDTSSSTAYMQFSSLTTEDSAIYYCARGGSSFAMDYWGQGTSVTVSS
VL: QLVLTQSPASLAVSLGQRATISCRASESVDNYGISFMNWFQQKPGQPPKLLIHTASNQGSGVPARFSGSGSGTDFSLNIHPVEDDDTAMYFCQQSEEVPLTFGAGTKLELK
Kd [2]: 1.69 nM | koff [2]: 0.000188 s⁻¹ | kon [2]: 111000 M⁻¹ s⁻¹ | IC50 [3]: 0.013 µg/mL | IC80 [3]: 0.35 µg/mL | EC50 (read off the curve) [4]: ~0.09 µg/mL | ELISA (unit not given) [5]: 0.04 | binding result [5]: no binding (tested: not given (supernatant))

B3: G4 antibody (antibody, V domains shown)
VH: QVQLQQSGPELVRPGVSVKISCKGSGYTFTDYAIHWVKQSHAKSLEWIGVFSTYYGNTNYNQKFKGRATMTVDKSSSTAYMELARLTSEDSAIYYCARKSYYVDYVDAMDYWGQGTSVTVSS
VL: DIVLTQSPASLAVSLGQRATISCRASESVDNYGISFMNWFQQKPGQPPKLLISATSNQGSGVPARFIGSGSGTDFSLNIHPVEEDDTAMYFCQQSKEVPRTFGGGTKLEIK
pseudotyped MERS-CoV (England1) virus neutralization potency [6]: ~10 fold lower | IC50 [3]: 0.133 µg/mL | IC80 [3]: 0.806 µg/mL | binding result [4]: no binding (tested: 10 µg/ml) | binding result [7]: no binding (tested: 10 µg/ml) | ELISA (unit not given) [8]: 0.06 | ELISA (unit not given) [5]: 0.05

B4: F11 antibody (antibody, V domains shown)
VH: EVKLEESGGGLVKPGGSLKLSCAASGFTFSRYAMSWVRQTPEKRLEWVATINNGGSYSYYPDSVKGRLTISRDNAKNTLYLQMSSLRSEDTALYYCARHYDYDGYYYTMDFWGQGTSVTVSS
VL: DVLMTQIPLSLPVSLGDQASISCRSSQSIVHSNGNTYLEWYLQKPGQSPKPLIYKVSNRISGVPDRFSGSGSGTDFTLKISRVEAEDLGVYYCFQGSHVPYTFGGGTNLEIKR
Kd [2]: 3.49 nM | koff [2]: 0.000391 s⁻¹ | kon [2]: 112000 M⁻¹ s⁻¹ | Kd [9]: 114 nM | koff [9]: 0.0079 s⁻¹ | kon [9]: 69100 M⁻¹ s⁻¹ | IC50 [3]: 0.008 µg/mL | IC80 [3]: 0.052 µg/mL | EC50 (read off the curve) [10]: ~0.05 µg/mL | ELISA (unit not given) [8]: 2.67

B5: FIB_H1 NHP antibody (antibody, V domains shown)
VH: EVQLVQSGAEVKKPGASVKVSCKASGHIFTSYVINWLQEAPGQGFEWMGGIHPGNGGRDYAQKFQGRVTITADMSTSTVYMELRSLRSEDMAVYYCAASSGSYGVSSLDVWGRGVLVTVSS
VL: QSALTQPPSLSASPGASARLPCTLSSDLSVGSKNMYWYQQKPGSAPRLFLYYYSDSDKQLGPGVPNRVSGSKETSSNTAFLLISGLQPEDEADYYCQVYDSSANWVFGGGTRLTVL
binding result [11]: no binding

B6: FIB_B2 NHP antibody (antibody, V domains shown)
VH: QVQLQESGPGLVKPSETLSLTCAVSGGSISSNYWYWIRQSPVKGLEWIGYIYGGSGGTEYNPSLKSRVTISTDTSKNQFFLKLSSVTAADTAVYYCARSFYSWNGESWGQGVVVTVSS
VL: DIQMSQTPSSLSASVGDRVTITCRASQGINDYLNWYQQKPGKAPKLLIYYGNSLASGVPSRFSGSGSGTDFSLTISSLQPEDFATYYCQQGDSFPLTFGGGTKVDIK
binding result [12]: binds | binding result [11]: no binding

B7
IC50 (read off the curve) [13]: ~2 µg/mL

B8: A2 human antibody (antibody, V domains shown)
VH: QVQLVESGGGLVKPGGSLRLSCAASGFTFSDYYMSWIRQAPGKGLEWVSYISSSGSTIYYADSVKGRFTISRDNAKNSLYLQMNSLRAEDTAVYYCARVGLGSGWYDWFDPWGQGTLVTVSS
VL: QSALTQPPSVSGAPGQRVTISCTGSSSNIGASYDVHWYQHLPGTAPKLLIYGNTNRPSGVPDRFSGSKSGTSASLAITGLQAEDEADYYCQSYDSSLSGVVFSGGTKLTVL
binding result [1]: no binding
